Target: gasp1_human GPRASP1 (UniProt Q5JY77)
Sequence (Q5JY77 whole entry): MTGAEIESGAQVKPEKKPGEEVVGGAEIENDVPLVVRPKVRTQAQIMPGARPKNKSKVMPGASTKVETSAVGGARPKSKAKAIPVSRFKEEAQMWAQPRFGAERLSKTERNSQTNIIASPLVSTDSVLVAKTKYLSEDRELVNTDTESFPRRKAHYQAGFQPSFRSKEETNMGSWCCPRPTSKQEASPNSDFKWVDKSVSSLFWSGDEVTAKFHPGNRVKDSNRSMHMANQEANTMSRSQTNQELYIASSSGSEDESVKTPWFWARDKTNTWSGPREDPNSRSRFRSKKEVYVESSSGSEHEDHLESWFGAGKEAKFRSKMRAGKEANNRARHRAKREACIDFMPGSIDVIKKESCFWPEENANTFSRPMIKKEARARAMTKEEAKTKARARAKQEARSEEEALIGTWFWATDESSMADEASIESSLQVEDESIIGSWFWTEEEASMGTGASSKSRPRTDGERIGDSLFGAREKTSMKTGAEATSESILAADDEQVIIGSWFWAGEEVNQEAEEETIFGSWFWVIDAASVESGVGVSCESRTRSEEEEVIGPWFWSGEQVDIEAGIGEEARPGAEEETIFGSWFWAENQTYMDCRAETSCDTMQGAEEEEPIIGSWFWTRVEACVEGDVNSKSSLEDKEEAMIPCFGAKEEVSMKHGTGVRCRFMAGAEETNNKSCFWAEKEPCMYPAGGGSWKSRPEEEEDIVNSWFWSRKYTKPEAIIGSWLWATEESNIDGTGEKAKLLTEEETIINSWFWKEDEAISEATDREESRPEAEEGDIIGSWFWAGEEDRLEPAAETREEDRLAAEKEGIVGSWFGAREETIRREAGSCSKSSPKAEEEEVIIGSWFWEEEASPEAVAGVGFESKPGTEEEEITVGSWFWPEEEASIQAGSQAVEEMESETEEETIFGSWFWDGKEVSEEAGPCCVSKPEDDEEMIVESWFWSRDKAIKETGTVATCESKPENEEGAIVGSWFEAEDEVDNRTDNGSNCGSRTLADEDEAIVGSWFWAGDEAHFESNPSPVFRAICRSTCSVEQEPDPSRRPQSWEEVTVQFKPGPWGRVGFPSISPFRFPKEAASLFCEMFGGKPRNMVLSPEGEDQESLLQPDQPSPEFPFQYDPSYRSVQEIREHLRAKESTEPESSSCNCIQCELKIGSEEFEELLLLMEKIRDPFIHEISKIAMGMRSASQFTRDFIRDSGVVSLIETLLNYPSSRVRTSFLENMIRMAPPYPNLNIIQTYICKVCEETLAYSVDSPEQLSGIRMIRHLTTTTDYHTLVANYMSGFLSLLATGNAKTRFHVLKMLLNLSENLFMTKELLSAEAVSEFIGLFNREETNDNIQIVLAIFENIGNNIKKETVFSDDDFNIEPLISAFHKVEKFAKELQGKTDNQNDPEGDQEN

Chain of Beta-1 adrenergic receptor (Homo sapiens), P08588 F383A;R384A (P08588 whole entry F383A/R384A): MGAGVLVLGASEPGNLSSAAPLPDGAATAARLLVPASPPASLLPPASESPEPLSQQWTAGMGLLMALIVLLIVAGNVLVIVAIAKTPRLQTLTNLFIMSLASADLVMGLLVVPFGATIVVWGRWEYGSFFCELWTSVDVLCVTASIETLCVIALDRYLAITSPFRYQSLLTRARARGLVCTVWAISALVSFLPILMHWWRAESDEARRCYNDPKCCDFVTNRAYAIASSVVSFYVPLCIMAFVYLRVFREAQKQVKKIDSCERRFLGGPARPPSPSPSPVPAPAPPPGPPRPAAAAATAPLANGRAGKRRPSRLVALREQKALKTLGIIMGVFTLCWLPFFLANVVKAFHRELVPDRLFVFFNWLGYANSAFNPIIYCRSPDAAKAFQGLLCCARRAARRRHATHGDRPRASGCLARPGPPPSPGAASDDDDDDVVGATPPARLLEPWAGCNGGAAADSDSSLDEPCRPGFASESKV

effect of a mutation on the interaction: decreasing interaction
Substance: Beta-1 adrenergic receptor (Homo sapiens), P08588 F383A;R384A

From IntAct's records for PubMed 15086532
